Positions of bridges follow the written chain, without caps; N, C: chain ends. No end group written: not given here.
Experiments:
Met = target: T1, Met (Homo sapiens, UniProt P08581); test: Met activation ability, SRE luciferase assay in HEK293E cells (HGF-Erk-SRE pathway); format: cell-based; settings: for Met activation ability: Example 37, cell-free translation solution diluted, FIG. 69
T1 construct: endogenous in cells; host or cells: HEK293E
Protocol: (§1) The Met activation ability of the HGF-PAS dimer peptide was evaluated by luciferase assay. To 25 μL of Opti-MEM medium (Thermo Fisher Scientific), 0.6 μL of Attractene Transfection Reagent (QIAGEN) was added, and the mixture was incubated at room temperature for 5 minutes. To the above mixed solution, a mixed solution of 25 μL of Opti-MEM and 1 μL of SRE reporter vector (QIAGEN) was added, and the mixture was incubated at room temperature for 20 minutes. This mixed solution was added to a 96-well plate, over which 40,000 cell/well HEK293E cells were seeded and incubated overnight in a 5% CO2 incubator at 37° C. After transfection, all culture supernatant was removed, 100 μL of Opti-MEM medium (evaluation basal medium) containing 0.5% FBS (Thermo Fisher Scientific), 1% non-essential amino acid solution (Thermo Fisher Scientific), and penicillin-streptomycin (Nacalai Tesque) was added, and incubation was performed at 37° C. for 4 hours, and thereby the cells were starved.
To the evaluation basal medium, 0 to 200 ng/mL HGF was added, or 0 to 800 ng/mL AET-PAS-aMD4dY-PEG11, AET-PAS-aMD4-PEG11, or AET-PAS-aMD4-PEG3 was added, or a culture supernatant containing PAS-aMD4dY-PEG11, PAS-aMD4-PEG11, or PAS-aMD4-PEG3 was added so as to be diluted 10-fold with respect to the medium, and the evaluation basal medium was added in an amount of 100 μL to the cells. The cells were stimulated by culturing overnight in a 5% CO2 incubator at 37° C.
The signal intensities were detected using Dual-Luciferase Reporter Assay System (Promega). The medium supernatant in an amount of 100 μL was removed, 50 μL of Glo reagent was added, and the cells were lysed for 10 minutes at room temperature. The luminescence of Firefly luciferase emitted from the cell lysate solution was detected with a plate reader to quantify the activation of the HGF-Erk-SRE pathway. Subsequently, 50 μL of Glo & Stop reagent solution was added, and after 10 minutes, the luminescence of the internal standard Renilla luciferase was detected to quantify the number of cells. The signal activity of each sample was quantified as SRE activity=(Firefly luciferase luminescence intensity)/(Renilla luciferase luminescence intensity). The relative signal activity values for the samples without addition of the evaluation compound were determined and used as relative receptor activity.
as §1, with “peptide linker variant” for “peptide”, “0.6 L” for “0.6 μL”
To the evaluation basal medium, 0 to 100 ng/mL HGF was added, or a culture supernatant containing AET-aMD4dY-PAS8, AET-aMD4dY-PAS22 (the same molecule as AET-PAS-aMD4dY-PEG11), AET-aMD4dY-PAS49, AET-aMD4dY-PAS100, AET-aMD4dY-PAS200, AET-aMD4dY-GS15, or AET-aMD4dY-GS22 was added to the medium so as to be diluted at a predetermined ratio, and the evaluation basal medium was added in an amount of 100 μL to the cells. The cells were stimulated by culturing overnight in a 5% CO2 incubator at 37° C.
The Met activation ability of the stabilized HGF-PAS dimer peptide was evaluated by luciferase assay. […]

Met (HGF receptor) = Met (HGF receptor) (UniProt P08581 25-1390, limits assumed); test: cell-based or functional assay
Sequence of Met (HGF receptor) (P08581 25-1390 limits assumed): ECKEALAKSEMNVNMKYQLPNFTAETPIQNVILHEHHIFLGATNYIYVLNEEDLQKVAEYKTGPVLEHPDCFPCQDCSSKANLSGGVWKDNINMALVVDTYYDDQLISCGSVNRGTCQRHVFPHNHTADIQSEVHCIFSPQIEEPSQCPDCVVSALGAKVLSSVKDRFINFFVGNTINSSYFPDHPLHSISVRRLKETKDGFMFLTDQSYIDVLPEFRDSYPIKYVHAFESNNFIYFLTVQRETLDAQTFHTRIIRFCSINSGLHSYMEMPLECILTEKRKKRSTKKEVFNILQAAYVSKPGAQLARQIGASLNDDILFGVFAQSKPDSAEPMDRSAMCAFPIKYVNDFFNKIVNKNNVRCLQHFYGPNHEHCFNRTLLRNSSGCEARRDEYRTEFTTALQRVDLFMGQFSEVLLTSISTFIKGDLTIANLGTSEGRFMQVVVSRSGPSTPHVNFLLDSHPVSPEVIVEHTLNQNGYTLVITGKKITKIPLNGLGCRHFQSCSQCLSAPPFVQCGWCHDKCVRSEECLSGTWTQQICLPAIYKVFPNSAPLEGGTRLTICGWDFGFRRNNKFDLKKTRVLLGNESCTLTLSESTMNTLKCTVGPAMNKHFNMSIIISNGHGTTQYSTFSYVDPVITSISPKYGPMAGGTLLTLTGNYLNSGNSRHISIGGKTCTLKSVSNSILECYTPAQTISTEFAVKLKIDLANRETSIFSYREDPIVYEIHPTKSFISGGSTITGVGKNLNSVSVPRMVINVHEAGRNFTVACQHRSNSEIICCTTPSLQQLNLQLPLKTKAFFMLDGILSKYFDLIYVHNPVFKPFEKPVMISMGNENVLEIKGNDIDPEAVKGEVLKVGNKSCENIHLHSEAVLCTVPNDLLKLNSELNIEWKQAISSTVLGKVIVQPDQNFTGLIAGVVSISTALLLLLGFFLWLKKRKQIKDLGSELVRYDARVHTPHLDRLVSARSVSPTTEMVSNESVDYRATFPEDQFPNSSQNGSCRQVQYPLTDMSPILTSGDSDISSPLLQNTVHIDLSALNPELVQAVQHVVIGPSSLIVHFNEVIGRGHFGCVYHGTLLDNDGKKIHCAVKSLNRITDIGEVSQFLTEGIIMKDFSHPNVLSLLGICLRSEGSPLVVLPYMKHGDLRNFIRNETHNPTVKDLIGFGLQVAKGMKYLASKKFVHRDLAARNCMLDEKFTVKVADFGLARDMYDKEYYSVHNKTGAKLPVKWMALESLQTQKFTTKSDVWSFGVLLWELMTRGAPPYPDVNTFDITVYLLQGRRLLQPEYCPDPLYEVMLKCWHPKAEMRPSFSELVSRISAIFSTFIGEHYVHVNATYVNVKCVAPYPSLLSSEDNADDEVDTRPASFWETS

T1 sequence (P08581 25-1390): as the sequence (P08581 25-1390 limits assumed) above

Row | Molecule | Emax (%) (Met (HGF receptor)) | other results
1 | CRQFNRRTHEVWNLDC (disulfide 1-16) [aMD4dY, reference compound] |  | signal activation ability, dimer versus monomer (Met; Example 43, FIG. 76): showed no signal activation ability
2 | CRQFNRRTHEVWNLDCGAAPAAPAPAAPAAPAPAAPAAPGCRQFNRRTHEVWNLDC (disulfide 1-16, 41-56; also: PEG11) [PAS-aMD4dY-PEG11] |  | maximum activity compared with HGF (Met; Example 6, AET form 0 to 800 ng/mL, PAS form culture supernatant diluted 10-fold): comparable to 100 ng/mL HGF
3 | MAETCRQFNRRTHEVWNLDCGAAPAAPAPAAPAAPAPAAPAAPGCRQFNRRTHEVWNLDC (disulfide 5-20, 45-60) [MAET-aMD4dY-PAS22] |  | Met activation ability (Met): had Met activation ability
4 | MAETCRQFNRRTHEVWNLDCGAAPAAPAPGCRQFNRRTHEVWNLDC (disulfide 5-20, 31-46) [MAET-aMD4dY-PAS8] |  | Met activation ability (Met): had Met activation ability
5 | AET-PAS-aMD4dY-PEG11 (disulfide 4-19, 44-59; also: PEG11 in name, stated same as AET-aMD4dY-PAS22) peptide: AETCRQFNRRTHEVWNLDCGAAPAAPAPAAPAAPAPAAPAAPGCRQFNRRTHEVWNLDC | 100 | 
6 | AETCRQFNRRTHEVWNLDCGAAPAAPAPAAPAAPAPAAPAAPGCRQFNRRTHEVWNLDCGAAPAAPAPAAPAAPAPAAPAAPGCRQFNRRTHEVWNLDC (AET-aMD4dY-PAS22-Trimer; DISULFID (4)..(19) Disulfid bridge between Cys-4 and Cys-19; DISULFID (44)..(59) Disulfid bridge between Cys-44 and Cys-59; DISULFID (84)..(99) Disulfid bridge between Cys-84 and Cys-99) AETCRQFNRRTHEVWNLDCGAAPAAPAPAAPAAPAPAAPAAPGCRQFNRRTHEVWNLDCGAAPAAPAPAAPAAPAPAAPAAPGCRQFNRRTHEVWNLDC |  | signal activation ability, trimer versus dimer (Met; Example 42, culture supernatant diluted, FIG. 75): signal activation ability similar to the dimer peptide
7 | AET-aMD4dY-PAS100 (two disulfide bonds in the molecule) peptide: AETCRQFNRRTHEVWNLDCGAAPAAPAPAAPAAPAPAAPAAPAPAAPAAPAPAAPAAPAPAAPAAPAPAAPAAPAPAAPAAPAPAAPAAPAPAAPAAPAPAAPAAPAPAAPAAPAPAAPAGCRQFNRRTHEVWNLDC | 47.2 | 
8 | AET-aMD4dY-PAS200 (two disulfide bonds in the molecule) peptide: AETCRQFNRRTHEVWNLDCGAAPAAPAPAAPAAPAPAAPAAPAPAAPAAPAPAAPAAPAPAAPAAPAPAAPAAPAPAAPAAPAPAAPAAPAPAAPAAPAPAAPAAPAPAAPAAPAPAAPAAPAPAAPAAPAPAAPAAPAPAAPAAPAPAAPAAPAPAAPAAPAPAAPAAPAPAAPAAPAPAAPAAPAPAAPAAPAPAAPAAPAPAAPAAPAPAAPAAPAPGCRQFNRRTHEVWNLDC | 20.4 | 
9 | MAETCYRQFNRRTHEVWNLDCGAAPAAPAPAAPAAPAPAAPAAPGCRQFNRRTHEVWNLDC (disulfide 5-21, 46-61) MAETCYRQFNRRTHEVWNLDCGAAPAAPAPAAPAAPAPAAPAAPGCRQFNRRTHEVWNLDC |  | Met activation ability (Met): had Met activation ability
10 | AET-aMD4dY-GS15 (disulfide 4-19, 37-52) peptide: AETCRQFNRRTHEVWNLDCGGGGGSGGGGSGGGGSGCRQFNRRTHEVWNLDC | 45.8 | 
11 | AET-aMD4dY-PAS49 (two disulfide bonds in the molecule) peptide: AETCRQFNRRTHEVWNLDCGAAPAAPAPAAPAAPAPAAPAAPAPAAPAAPAPAAPAAPAPAAPAAPAPAGCRQFNRRTHEVWNLDC | 82.8 | 
12 | AET-aMD4dY-GS22 (disulfide 4-19, 44-59) peptide: AETCRQFNRRTHEVWNLDCGGGGGSGGGGSGGGGSGGGGSGGGCRQFNRRTHEVWNLDC | 32.3 | 
13 | AETCRQFNRRTHEVWNLDCGAAPAAPAPGCRQFNRRTHEVWNLDC (disulfide 4-19, 30-45) [AET-aMD4dY-PAS8] | 56.4 | 
